Results taken from patent US11833164B2, “Methods of treating Fabry disease in patients having a mutation in the GLA gene” (Amicus Therapeutics, Inc., priority 2019, dated 2023).
Positions count from the first letter of the chain named. Names and notes keep the numbering of the source.

B1: N139H (protein)
chain: MQLRNPELHLGCALALRFLALVSWDIPGARALDNGLARTPTMGWLHWERFMCNLDCQEEPDSCISEKLFMEMAELMVSEGWKDAGYEYLCIDDCWMAPQRDSEGRLQADPQRFPHGIRQLANYVHSKGLKLGIYADVGHKTCAGFPGSFGYYDIDAQTFADWGVDLLKFDGCYCDSLENLADGYKHMSLALNRTGRSIVYSCEWPLYMWPFQKPNYTEIRQYCNHWRNFADIDDSWKSIKSILDWTSFNQERIVDVAGPGGWNDPDMLVIGNFGLSWNQQVTQMALWAIMAAPLFMSNDLRHISPQAKALLQDKDVIAINQDPLGKQGYQLRQGDNFEVWERPLSGLAWAVAMINRQEIGGPRSYTIAVASLGKGVACNPACFITQLLPVKRKLGFYEWTSRLRSHINPTGTVLLQLENTMQMSLKDLL
B2: N139I (protein)
chain: B1 chain with H139I
B3: N139K (protein)
chain: B1 chain with H139K
B4: N139Y (protein)
chain: B1 chain with H139Y
B5: K140E (protein)
chain: B1 chain with H139N, K140E
B6: K140I (protein)
chain: B1 chain with H139N, K140I
B7: K140N (protein)
chain: B1 chain with H139N, K140N
B8: K140Q (protein)
chain: B1 chain with H139N, K140Q
B9: K140R (protein)
chain: B1 chain with H139N, K140R
B10: T141S (protein)
chain: B1 chain with H139N, T141S
B11: A143E (protein)
chain: B1 chain with H139N, A143E

System: mutant form of α-Gal A expressed in HEK-293 cells
Assay: HEK assay (GLP HEK / Migalastat Amenability Assay): α-Gal A activity in lysates of transiently transfected HEK-293 cells incubated with or without 10 μM migalastat
Format: cell-based, human
Settings: 10 μM migalastat versus baseline
Method: Such mutations or variants are also referred to herein as “HEK assay amenable” mutations or variants.
The α-Gal A activity is expressed as the nmoles of free 4-MU released per milligram of protein per hour (nmol/mg/hr).
In Table 7, values for the mean±standard error of the mean (SEM) were calculated. nmol/mg/hr indicates “nmoles of free 4-MU released per mg of protein per hour”. WT indicates “wild-type”. NC indicates “not calculable”. N/A indicates “not applicable”.

| Molecule | Absolute increase (% WT) |
| --- | --- |
| B1 | 28.1 |
| B2 | 26.4 |
| B3 | 33.8 |
| B4 | 11.7 |
| B5 | 59.5 |
| B6 | 49.4 |
| B7 | 40.3 |
| B8 | 42.5 |
| B9 | 39.4 |
| B10 | 34.4 |
| B11 | 11.4 |

Same assay, conditions: 10 μM migalastat α-Gal A activity relative to baseline

| Molecule | Relative increase |
| --- | --- |
| B1 | 1.4 |
| B2 | 1.5 |
| B3 | 1.3 |
| B4 | 1.2 |
| B5 | 1.8 |
| B6 | 2.1 |
| B7 | 1.4 |
| B8 | 1.4 |
| B9 | 1.3 |
| B10 | 1.5 |
| B11 | 1.5 |

Same assay, conditions: 10 μM migalastat, 5 days; percentage of baseline wild-type α-Gal A activity; mean ± SEM

| Molecule | 10 μM migalastat α-Gal A activity (% WT) |
| --- | --- |
| B1 | 101.2 ± 7.1 |
| B2 | 78.3 ± 4.5 |
| B3 | 127.4 ± 8.8 |
| B4 | 64 ± 5.2 |
| B5 | 132.1 ± 9 |
| B6 | 92.1 ± 7.1 |
| B7 | 154.1 ± 11.1 |
| B8 | 165.7 ± 9.7 |
| B9 | 180.9 ± 15 |
| B10 | 98.2 ± 9.1 |
| B11 | 37.3 ± 1.8 |

Same assay, conditions: absence of migalastat; percentage of baseline wild-type α-Gal A activity; mean ± SEM

| Molecule | Baseline α-Gal A activity (% WT) |
| --- | --- |
| B1 | 73.1 ± 5.4 |
| B2 | 51.8 ± 5.1 |
| B3 | 93.6 ± 5.8 |
| B4 | 52.3 ± 3.8 |
| B5 | 72.6 ± 5.8 |
| B6 | 42.7 ± 3.3 |
| B7 | 113.8 ± 9.5 |
| B8 | 123.2 ± 12.1 |
| B9 | 141.5 ± 12 |
| B10 | 63.8 ± 7.1 |
| B11 | 25.9 ± 1.5 |

Same assay, conditions: lysates of HEK-293 cells transfected with the mutant form, incubated 5 days in the absence of migalastat; mean ± SEM

| Molecule | Baseline α-Gal A activity [nmol/mg/h] |
| --- | --- |
| B1 | 29115 ± 2336 |
| B2 | 17180 ± 1455 |
| B3 | 33797 ± 2244 |
| B4 | 19998 ± 1682 |
| B5 | 26053 ± 1925 |
| B6 | 15415 ± 1294 |
| B7 | 40575 ± 2928 |
| B8 | 42995 ± 3236 |
| B9 | 50348 ± 3558 |
| B10 | 22602 ± 2254 |
| B11 | 7681 ± 439 |

Same assay, conditions: lysates of HEK-293 cells transfected with the mutant form, incubated 5 days with 10 μM migalastat; mean ± SEM

| Molecule | 10 μM migalastat α-Gal A activity [nmol/mg/h] |
| --- | --- |
| B1 | 40678 ± 3158 |
| B2 | 26326 ± 1627 |
| B3 | 45090 ± 2667 |
| B4 | 24303 ± 2079 |
| B5 | 46670 ± 2685 |
| B6 | 32440 ± 2092 |
| B7 | 54681 ± 3030 |
| B8 | 59162 ± 3600 |
| B9 | 62820 ± 3401 |
| B10 | 34806 ± 2770 |
| B11 | 11458 ± 884 |
